Measured values reported in US20220112244A1 (DOMPE FARMACEUTICI S P A, published 2022).

T1: mouse IL-17A (mouse, UniProt Q62386 26-158)
T1 construct: also called mIL-17 Å; mIL17
T1 sequence (looked up): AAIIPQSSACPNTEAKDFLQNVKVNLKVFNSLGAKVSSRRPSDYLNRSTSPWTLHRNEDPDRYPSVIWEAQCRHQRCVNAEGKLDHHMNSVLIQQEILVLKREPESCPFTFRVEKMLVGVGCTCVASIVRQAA


Tests used:
mouse IL-17A [1] = molecular target: T1, mouse IL-17A; assay: SPR, mouse IL-17A amine-coupled to the chip (3000 RU), peptide 62.5-1000 nM as analyte, Scatchard analysis of RU at equilibrium
[2] = molecular target: T2, IL-17A (agonist in the IL-17RA/IL17RC dimerization assay) (UniProt Q16552 24-155); assay: cell-based or functional assay
mouse IL-17A [3] = molecular target: T1, mouse IL-17A; assay: SPR on immobilised mouse IL-17A
[4] = molecular target: T2, IL-17A (agonist in the IL-17RA/IL17RC …); assay: cell-based or functional assay; remark: listed apart in the source

T2 sequence (Q16552 24-155 limits assumed): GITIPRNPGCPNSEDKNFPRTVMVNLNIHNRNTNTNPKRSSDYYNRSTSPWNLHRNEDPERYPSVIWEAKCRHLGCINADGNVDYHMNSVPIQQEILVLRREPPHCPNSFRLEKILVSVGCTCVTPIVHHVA

Kd (mouse IL-17A [1]) [nM] | IC50, % inhibition of IL-17A-induced IL-17RA/IL17RC dimerization (PathHunter cytokine receptor assay) [2] [µM] | fold affinity against SEQ ID NO: 1 (mouse IL-17A [3]) [fold] | IC50 in IL-17RA/IL7RC dimerization assay [4] [µM] | Binder
3700 | – | – | – | Ac-IHVTIPADLWDWINK-NH2 [High Affinity Peptide (HAP), peptide of SEQ ID NO: 1]
130 | 0.191 | 28 | < 0.2 | Ac-VHVTIPADLWDWINK-NH2 (HAP with Ile 1 replaced by Val) [peptide of SEQ ID NO: 2]
